Data reported in patent US9827292B2, “Use of KGF in the treatment of menopausal disorders” (Università degli Studi di Roma “La Sapienza”, priority 2012, dated 2017).

B1: keratinocyte growth factor (protein, listed as Homo sapiens)
chain: MHKWILTWILPTLLYRSCFHIICLVGTISLACNDMTPEQMATNVNCSSPERHTRSYDYMEGGDIRVRRLFCRTQWYLRIDKRGKVKGTQEMKNNYNIMEIRTVAVGIVAIKGVESEFYLAMNKEGKLYAKKECNEDCNFKELILENHYNTYASAKWTHNGGEMFVALNQKGIPVRGKKTKKEQKTAHFLPMAIT
notes: human recombinant KGF (Upstate Biotechnology)

How the values were obtained:
ERalpha = test: Immunofluorescence localisation of ER in MCF-7 cells; format: cell-based, human; conditions: 5 or 30 min treatment, FIG. 4B
Description: The oestrogen receptor α-positive MCF-7 human breast adenocarcinoma cell line, acquired from American Type Culture Collection (no. HTB-22, ATCC-LGC Promochem, Teddington, UK), was cultured in Dulbecco's modified eagle's medium (DMEM; Invitrogen, Karlsruhe, Germany), supplemented with 10% foetal bovine serum (FBS; Invitrogen) and antibiotics. Primary cultures of human oestrogen-sensitive keratinocytes (KCs) were established from 1 cm^2 full-thickness mucosal biopsy of the vaginal vestibule. […]
The cells, grown on glass coverslips, were treated as described above, then fixed in 4% paraformaldehyde in phosphate-buffered saline (PBS) for 30 min at 25° C., followed by treatment with 0.1 M glycine in PBS for 20 min at 25° C. and with 0.1% Triton X-100 in PBS for an additional 5 min at 25° C. to allow permeabilisation. […] Fluorescence signals were analysed by recording stained images using a cooled CCD colour digital camera SPOT-2 (Diagnostic Instruments Incorporated, Sterling Heights, Mich.) and Axiovision software (Carl Zeiss Inc., Oberkochen, Germany).
The percentage of Ki67-positive cells was evaluated by counting, for each treatment, a total of 500 cells, randomly taken from ten microscopic fields in three different experiments, expressed as mean value±95% CI and recorded as graphs. […]

vaginal epithelium = test: Vaginal atrophy model in ovariectomised CD1 mice, local hydrogel treatment, histology; format: in vivo, mouse; conditions: for cornification of vaginal epithelium (hematoxylin and eosin) / stratification of the vaginal epithelium and hyperkeratosis (hematoxylin and eosin): low and high doses, 60 days; for cornification of vaginal epithelium (hematoxylin and eosin): not in vehicle group, FIG. 8A; for stratification of the vaginal epithelium and hyperkeratosis (hematoxylin and eosin): versus vehicle only, FIG. 7B
Description: The mouse strain CD1 was used in this study (Charles Rivers). The mice were held in a standard housing for laboratory animals with controlled lighting (12 h/day) and temperature (25±1° C.) and were provided with food and water ab libitum. All the experimental protocols concerning animals were in line with the Guidelines of Sapienza University for the care and use of laboratory animals and were approved by the Ethical Committee of the aforesaid institution. Forty female mice were subjected to an ovariectomy for the purpose of inducing vaginal atrophy and were administered a diet of Altromin C1000 without phytoestrogens (Altromin, Lage, Germany) for the duration of the experiments. After 30 days, the mice were treated locally, introducing daily into the vaginal canal 25 μl of hydrogel loaded with KGF (10 or 30 ng/day) or with E2 (30 ng/day or 1 μg/day). A control group was treated only with hydrogel. After 60 days of treatment, the mice were killed and the vaginas were immediately explanted, fixed in formalin and processed for histological analysis.
Serial sections of the vaginal mucus obtained from four groups of mice were stained with hematoxylin/eosin, placed permanently under a glass plate and analysed histologically. The thickness and the strata of epithelial cells of the vagina were then determined in three animals for each group, in three images for each animal (10× enlargement). Mean values were obtained from five measurements of each image. For the purpose of quantifying the thickness of the vaginal epithelium, the vertical distance between the lower surface of the cells in the stratum basale and the apical surface of the cells in the stratum superficiale was measured with the aid of NIH Image J v 1.56 (National Institutes of Health, Bethesda, Md.), and denoted as thickness. To estimate the number of vaginal epithelial layers, the layer of cells covering five contiguous basal cells was counted in the sample.
Serial sections of the vaginal mucus obtained from the four groups of mice were analysed for the expression of PCNA (Proliferating Cell Nuclear Antigen, a marker of cell proliferation) by means of immunohistochemistry. The sections were elaborated using the technique of avidin-biotin-peroxidase complex (DAKO, Glostrup, Denmark) and incubated with mouse anti-A-rat-PCNA monoclonal antibody (clone P10, 1:4000) (Abcam, Cambridge, UK), which recognises proliferant cells.
All the animals enrolled in the study were fed with a special diet devoid of oestrogens (special altromin C1000 phytoestrogen-free diet). The mice subject to an ovariectomy were then divided into […]: one group received no treatment; one group received only the vehicle; one group received the vehicle+E2 30 ng/day; one group received the vehicle+E2 1 μg/day; one group received the vehicle+KGF 10 ng/day; and one group received the vehicle+KGF 30 ng/day.
The animals were killed and the vaginas removed and immediately fixed in formalin and processed for histology. Vaginal epithelium of the treated mice was analysed histologically by means of hematoxylin/eosin and was compared with the epithelium of the group of mice not subjected to ovariectomy (FIGS. 7B and 8A). The criteria adopted in order to determine the trophism of the vaginal mucus were the thickness (evidenced by counting the number of epithelial layers present and by measuring the thickness of the epithelium in μm and also by means of the ratio between area of the epithelial layer and length of the basal membrane) (FIG. 8B) and the proliferative ability of the keratinocytes (determined by means of analyses of the expression of PCNA, a marker of cell proliferation) (FIG. 9).

| Molecule | cellular localisation of ER by immunofluorescence (ERalpha) | cornification of vaginal epithelium (hematoxylin and eosin) (vaginal epithelium) | stratification of the vaginal epithelium and hyperkeratosis (hematoxylin and eosin) (vaginal epithelium) | increase in epithelial thickness, KGF versus E2 (vaginal epithelium; KGF at 30 ng/25 ul and E2 at 1 ug/25 ul, FIG. 8B) | epithelium lubrication / mucinous (PAS-positive) cells (vaginal epithelium; topical KGF, PAS staining, FIG. 9B) | vaginal thinning / epithelial cell proliferation (vaginal epithelium; topical KGF, ovariectomised mice, FIG. 9) |
| --- | --- | --- | --- | --- | --- | --- |
| C[C@]12CC[C@@H]3c4ccc(O)cc4CC[C@H]3[C@@H]1CC[C@@H]2O [E2, 17β-oestradiol] | movement of ER in the nucleus | Cornificated vaginal epithelium was observed | significant induction of stratification of the vaginal epithelium and hyperkeratosis |  |  |  |
| B1 | unexpected localisation of ER on the plasmatic membrane | Cornificated vaginal epithelium was observed | significant induction of stratification of the vaginal epithelium and hyperkeratosis | same increase in epithelial thickness | restore epithelium lubrication through stimulation of mucinous cells | able to counteract vaginal thinning by stimulating epithelial cells proliferation |
